Assay results as given in paper PMC4234509.

Tests used:
[1] = target: EvpP (E. tarda virulent protein P), wild type, 6x His-tagged (Edwardsiella tarda PPD130/91); experiment: dynamic light scattering; 50 µM protein, 20°C, DynaPro; 11 readings
[2] = target: EvpP (E. tarda virulent protein P), wild type, 6x His-tagged (Edwardsiella tarda PPD130/91); experiment: SEC; Superdex 75 HiLoad 16/60; EvpP eluted at ~72 ml, standards ovalbumin (44 kDa) at 63 ml and myoglobulin (17 kDa) at 83 ml
[3] = target: EvpP (E. tarda virulent protein P), wild type, 6x His-tagged (Edwardsiella tarda PPD130/91); experiment: cross-linking; glutaraldehyde, room temperature, different time periods, SDS-PAGE
[4] = target: trypsin-digested EvpP (associated 10-kDa and 4-kDa fragments) (Edwardsiella tarda PPD130/91); experiment: SEC; EvpP after limited trypsin digestion (protein:trypsin 100:1), HiLoad 16/60 Superdex 75

With “EvpP (E. tarda virulent protein P), wild type, 6x His-tagged (natural protein)” the stoichiometry N [1] was 2, the stoichiometry N [2] was 2 and the stoichiometry N [3] was 2.
“trypsin-digested EvpP (associated 10-kDa and 4-kDa fragments) (complex)” was tested, and the stoichiometry N [4] was 2.
